The record followed here is patent US20100047893.

The target in data set [1] is mixed bovine histones (Sigma).

B1: GST-TbPRMT7 (protein)
chain: MPPKQHRHQKKDKNDNALQNTIGFVPPGATLASVSGYRPPDAFVNRIDRNIPVPARLRHTPVSLIEAVNDFHYAMMNDEERNNFYYEVLKKHVTPETGVLEIGAGSGLLSLMAAKLGAKWVVAVEGSEELAKLARENIRANNMEHQVKVLHMMSTELKSKHLPEPPDVLLSEIFGTMMLGESALDYVVDVRNRLLKPTTKIIPQFGTQYAVPIECDALHRISSVSGWRDLDLKHMMTLQDTVSIVFAKHYGIRMNSVNFRRLSDPIELFRVDFSSSNRNDIPRRKHFDVVAKESGTAHAMLFYWKVTDDEFVMSTDPEDTVNNFPRDMQWGQALQLLDASNGPLPTPVVFTEGKNYNFECNFSGDRVILHMQLCPESGNGEMTECEGKTT
As for B1, the “methylarginine derivatives by cation exchange chromatography after 3H-AdoMet reaction” value (in the data set with RBP16; in data set [1]) was “only monomethylargnine produced with either histone (B) or RBP16 (C) substrate” in each case. Besides, in the data set with histone H3, P68432, the “protein arginine methyltransferase activity (3H-AdoMet, SDS-PAGE, fluorography)” value was “the recombinant enzyme possesses protein arginine methyltransferase activity and utilizes histone H3 as a substrate”.

B2: recombinant TbPRMT7 (protein)
chain: B1 chain
As to B2, the “in vitro methylation (3H-AdoMet, SDS-PAGE, fluorography)” value with GST was “Of the eight substrates tested, only GST was not methylated”. Besides, the in vitro methylation entry (with RBP16; in data set [1]) was “Results indicate methylation occurred” each time.

B3: TbPRMT7-ProtC (protein)
chain: B1 chain
As to B3, the “in vitro methylation (3H-AdoMet, fluorography)” value is “TbPRMT7-ProtC strongly methylated both histones and RBP16” with RBP16; “TbPRMT7-ProtC strongly methylated both histones and RBP16” in data set [1].
